From US20120121594A1 (published 2012)

Tests used:
Experiment in all cases: cell-based or functional assay
Human IL-6 = Human IL-6 (human, UniProt P05231 30-212)
Cynomolgus monkey IL-6 = target: T1, Cynomolgus monkey IL-6 (cynomolgus monkey, UniProt P79341 28-212, limits assumed)
T1 sequence (looked up): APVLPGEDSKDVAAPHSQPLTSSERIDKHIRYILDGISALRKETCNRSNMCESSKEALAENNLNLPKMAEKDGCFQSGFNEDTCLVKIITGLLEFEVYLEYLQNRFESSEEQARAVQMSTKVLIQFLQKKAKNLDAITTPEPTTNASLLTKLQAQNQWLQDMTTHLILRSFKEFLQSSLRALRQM

Mouse IL-6 = target: T2, Mouse IL-6 (mouse, UniProt P08505 25-211, limits assumed)
T2 sequence (looked up): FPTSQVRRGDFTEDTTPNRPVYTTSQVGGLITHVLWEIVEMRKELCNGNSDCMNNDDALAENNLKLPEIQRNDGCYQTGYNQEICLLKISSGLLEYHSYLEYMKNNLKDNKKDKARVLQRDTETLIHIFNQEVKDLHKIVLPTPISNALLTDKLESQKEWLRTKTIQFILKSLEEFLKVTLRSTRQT

Rat IL-6 = target: T3, Rat IL-6 (rat, UniProt P20607 25-211, limits assumed)
T3 sequence (looked up): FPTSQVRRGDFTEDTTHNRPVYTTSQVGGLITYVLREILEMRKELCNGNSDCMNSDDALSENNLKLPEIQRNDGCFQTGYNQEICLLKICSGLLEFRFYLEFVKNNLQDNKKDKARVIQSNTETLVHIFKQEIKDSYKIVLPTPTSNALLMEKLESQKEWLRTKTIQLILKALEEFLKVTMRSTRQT

B1: Ab1 (antibody, human IgG1, kappa, N297A, V domains shown)
VH: EVQLVESGGGLVQPGGSLRLSCAASGFSLSNYYVTWVRQAPGKGLEWVGIIYGSDETAYATSAIGRFTISRDNSKNTLYLQMNSLRAEDTAVYYCARDDSSDWDAKFNLWGQGTLVTVSS
VL: AIQMTQSPSSLSASVGDRVTITCQASQSINNELSWYQQKPGKAPKLLIYRASTLASGVPSRFSGSGSGTDFTLTISSLQPDDFATYYCQQGYSLRNIDNAFGGGTKVEIKR
Q: What does the source list for B1?
A: IC50 (pM), T1165 cell proliferation assay (Human IL-6): 13 pM; IC50 (pM), T1165 cell proliferation assay (Cynomolgus monkey IL-6): 12 pM; IC50 (pM), T1165 cell proliferation assay (Mouse IL-6): 1840 pM; IC50 (pM), T1165 cell proliferation assay (Rat IL-6): 2060 pM
